# Values joined by “and” are separate entries in the source; they are usually repeats but may differ in a detail not shown here. Identical values can stand only once.
# B1: CIRBP (157-172) synthetic peptide, wild type (peptide)
# peptide: GGSYRDSYDSYATHNE
# notes: also called mCIRBP^RSY; source: synthetic peptide (Peptide Specialty Laboratories GmbH)
# B2: RSY region of cold-inducible RNA-binding protein (CIRBP), residues 138-172 (domain or fragment, human, UniProt Q14011 138-172, looked up)
# chain: SRDYYSSRSQSGGYSDRSSGGSYRDSYDSYATHNE
# notes: Only residues 158-171 were modelled in PDB 8CMK; also called CIRBP^RSY; RSY-NLS; source: E. coli BL21-(DE3) Star, purified (denaturing lysis, Ni-NTA, TEV cleavage, second Ni-NTA, SEC Superdex 30); not shown: His6, N-terminal, cleaved; protein A, N-terminal, cleaved
# Experiments:
# [1] = molecular target: Transportin 3 (TNPO3) C511A mutant (human) (UniProt Q9Y5L0); test: ITC; 100 µM ligand in the syringe injected (28 x 10 µL) into 10 µM TNPO3 (WT or C511A) in the cell; 25 °C; 50 mM Tris-HCl pH 7.5, 150 mM NaCl, 2 mM TCEP, 0.04% NaN3
# [2] = molecular target: T1, Transportin 3 (TNPO3) C511A mutant (human, UniProt Q9Y5L0 1-923, C511A); test: ITC; rep2
# T1 sequence: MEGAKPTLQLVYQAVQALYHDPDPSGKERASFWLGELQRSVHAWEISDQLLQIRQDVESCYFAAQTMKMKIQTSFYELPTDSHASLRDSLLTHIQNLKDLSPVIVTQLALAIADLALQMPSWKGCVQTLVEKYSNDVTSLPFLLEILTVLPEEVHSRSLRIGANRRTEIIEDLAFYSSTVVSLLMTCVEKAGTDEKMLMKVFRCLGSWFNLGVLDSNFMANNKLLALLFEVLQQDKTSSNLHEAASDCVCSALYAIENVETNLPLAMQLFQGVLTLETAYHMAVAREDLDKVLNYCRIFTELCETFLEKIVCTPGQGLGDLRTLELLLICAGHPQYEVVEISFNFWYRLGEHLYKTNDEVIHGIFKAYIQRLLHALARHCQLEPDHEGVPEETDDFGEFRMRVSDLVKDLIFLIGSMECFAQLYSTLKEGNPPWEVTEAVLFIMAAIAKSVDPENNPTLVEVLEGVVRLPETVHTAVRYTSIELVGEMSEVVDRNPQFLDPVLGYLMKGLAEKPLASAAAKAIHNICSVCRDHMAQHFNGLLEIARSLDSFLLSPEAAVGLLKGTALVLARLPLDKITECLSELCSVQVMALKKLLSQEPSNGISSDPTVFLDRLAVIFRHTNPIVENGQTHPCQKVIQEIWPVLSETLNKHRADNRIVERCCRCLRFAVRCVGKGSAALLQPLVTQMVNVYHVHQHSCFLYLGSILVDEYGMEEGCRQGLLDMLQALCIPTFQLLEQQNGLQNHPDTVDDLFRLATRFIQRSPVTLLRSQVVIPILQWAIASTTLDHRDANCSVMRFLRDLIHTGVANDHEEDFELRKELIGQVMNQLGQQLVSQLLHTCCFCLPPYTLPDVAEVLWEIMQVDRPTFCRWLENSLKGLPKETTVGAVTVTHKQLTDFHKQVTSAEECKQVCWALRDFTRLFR
# [3] = molecular target: T2, Transportin 3 (TNPO3), full-length wild type (human, UniProt Q9Y5L0 1-923); test: NMR titration; 1H NMR spectra of 50 µM peptide free and with a stoichiometric amount (50 µM) of TNPO3 WT; line broadening of peptide signals; settings: both partners purified
# T2 construct: Transportin 3 (TNPO3), human, full-length wild type; For the NMR experiments made 15N-labelled with 13C-methyl labelling of isoleucine and methionine side chains ([IM-methyl 13C]); Vector pETM11-His6-protein A with a TEV site downstream of the protein A tag; also called TNPO3 WT; TNPO3 FL WT; source: E. coli BL21-(DE3) Star, purified (Ni-NTA, TEV cleavage, second Ni-NTA, SEC Superdex 200); not …
# T2 sequence (looked up): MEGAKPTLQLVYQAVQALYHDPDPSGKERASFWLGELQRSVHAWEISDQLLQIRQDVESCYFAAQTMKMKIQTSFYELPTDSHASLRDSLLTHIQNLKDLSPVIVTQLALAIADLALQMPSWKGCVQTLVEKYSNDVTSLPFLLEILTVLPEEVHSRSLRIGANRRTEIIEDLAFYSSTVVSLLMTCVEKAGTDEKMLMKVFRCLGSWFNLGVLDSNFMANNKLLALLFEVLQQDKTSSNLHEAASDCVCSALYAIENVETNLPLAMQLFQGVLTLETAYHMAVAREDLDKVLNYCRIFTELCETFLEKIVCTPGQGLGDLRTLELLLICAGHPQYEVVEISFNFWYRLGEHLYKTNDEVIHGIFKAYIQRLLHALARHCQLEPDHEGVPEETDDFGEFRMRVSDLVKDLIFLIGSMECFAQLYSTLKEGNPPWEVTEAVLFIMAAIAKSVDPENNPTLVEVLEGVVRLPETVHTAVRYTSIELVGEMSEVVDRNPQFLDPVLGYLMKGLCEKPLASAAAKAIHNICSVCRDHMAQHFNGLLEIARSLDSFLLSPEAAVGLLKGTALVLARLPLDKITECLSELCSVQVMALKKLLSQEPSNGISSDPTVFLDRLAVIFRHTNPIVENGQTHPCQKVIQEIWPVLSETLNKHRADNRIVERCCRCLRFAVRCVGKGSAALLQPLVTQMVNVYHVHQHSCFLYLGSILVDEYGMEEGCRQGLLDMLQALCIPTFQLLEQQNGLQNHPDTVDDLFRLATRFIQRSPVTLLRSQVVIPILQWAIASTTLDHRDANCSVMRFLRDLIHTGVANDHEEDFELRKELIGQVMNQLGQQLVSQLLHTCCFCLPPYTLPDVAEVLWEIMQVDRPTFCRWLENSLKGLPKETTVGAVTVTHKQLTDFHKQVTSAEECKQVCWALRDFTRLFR
# [4] = molecular target: T1, Transportin 3 (TNPO3) C511A mutant; test: ITC
# [5] = molecular target: T1, Transportin 3 (TNPO3) C511A mutant; test: ITC; remark: listed apart in the source
# [6] = molecular target: T3, Transportin 3 (TNPO3), full-length wild type (human, UniProt Q9Y5L0 1-923); test: ITC; rep2
# T3 chain: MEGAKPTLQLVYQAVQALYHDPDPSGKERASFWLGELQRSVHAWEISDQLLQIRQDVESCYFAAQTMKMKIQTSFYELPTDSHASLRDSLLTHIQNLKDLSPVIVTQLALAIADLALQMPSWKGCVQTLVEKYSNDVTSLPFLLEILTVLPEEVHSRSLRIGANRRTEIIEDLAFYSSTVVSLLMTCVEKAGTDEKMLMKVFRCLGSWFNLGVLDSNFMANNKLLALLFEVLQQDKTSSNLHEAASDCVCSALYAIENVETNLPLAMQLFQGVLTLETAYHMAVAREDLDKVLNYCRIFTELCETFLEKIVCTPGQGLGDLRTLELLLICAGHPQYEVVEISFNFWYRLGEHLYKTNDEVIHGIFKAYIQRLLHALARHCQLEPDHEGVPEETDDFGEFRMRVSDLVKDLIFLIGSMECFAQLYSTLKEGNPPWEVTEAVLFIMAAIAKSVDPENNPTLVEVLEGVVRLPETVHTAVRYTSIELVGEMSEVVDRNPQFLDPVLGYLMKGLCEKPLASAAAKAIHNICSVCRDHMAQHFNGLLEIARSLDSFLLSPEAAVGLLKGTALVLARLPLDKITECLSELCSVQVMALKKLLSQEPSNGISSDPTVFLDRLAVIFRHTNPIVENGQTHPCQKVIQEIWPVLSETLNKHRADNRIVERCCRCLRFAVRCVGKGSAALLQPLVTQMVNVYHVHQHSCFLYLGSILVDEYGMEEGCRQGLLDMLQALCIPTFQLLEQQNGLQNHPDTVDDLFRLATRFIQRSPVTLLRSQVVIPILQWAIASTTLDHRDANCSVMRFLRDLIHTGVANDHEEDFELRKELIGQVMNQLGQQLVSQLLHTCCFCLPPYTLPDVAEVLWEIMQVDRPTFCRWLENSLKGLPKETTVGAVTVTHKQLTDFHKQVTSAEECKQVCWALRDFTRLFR
# [7] = molecular target: T2, Transportin 3 (TNPO3), full-length wild …; test: ITC; 100 µM ligand in the syringe injected (28 x 10 µL) into 10 µM TNPO3 (WT or C511A) in the cell; 25 °C; 50 mM Tris-HCl pH 7.5, 150 mM NaCl, 2 mM TCEP, 0.04% NaN3; settings: both partners purified
# [8] = molecular target: T4, Transportin 3 (TNPO3) C511A mutant (human, UniProt Q9Y5L0 1-923, C511A); test: as above; settings: both partners purified
# T4 construct: Transportin 3 (TNPO3), human, C511A mutant that increases stability; Two chains in the asymmetric unit of 8CMK; source: E. coli BL21-(DE3) Star, purified (Ni-NTA, TEV cleavage, second Ni-NTA, SEC Superdex 200)
# T4 sequence: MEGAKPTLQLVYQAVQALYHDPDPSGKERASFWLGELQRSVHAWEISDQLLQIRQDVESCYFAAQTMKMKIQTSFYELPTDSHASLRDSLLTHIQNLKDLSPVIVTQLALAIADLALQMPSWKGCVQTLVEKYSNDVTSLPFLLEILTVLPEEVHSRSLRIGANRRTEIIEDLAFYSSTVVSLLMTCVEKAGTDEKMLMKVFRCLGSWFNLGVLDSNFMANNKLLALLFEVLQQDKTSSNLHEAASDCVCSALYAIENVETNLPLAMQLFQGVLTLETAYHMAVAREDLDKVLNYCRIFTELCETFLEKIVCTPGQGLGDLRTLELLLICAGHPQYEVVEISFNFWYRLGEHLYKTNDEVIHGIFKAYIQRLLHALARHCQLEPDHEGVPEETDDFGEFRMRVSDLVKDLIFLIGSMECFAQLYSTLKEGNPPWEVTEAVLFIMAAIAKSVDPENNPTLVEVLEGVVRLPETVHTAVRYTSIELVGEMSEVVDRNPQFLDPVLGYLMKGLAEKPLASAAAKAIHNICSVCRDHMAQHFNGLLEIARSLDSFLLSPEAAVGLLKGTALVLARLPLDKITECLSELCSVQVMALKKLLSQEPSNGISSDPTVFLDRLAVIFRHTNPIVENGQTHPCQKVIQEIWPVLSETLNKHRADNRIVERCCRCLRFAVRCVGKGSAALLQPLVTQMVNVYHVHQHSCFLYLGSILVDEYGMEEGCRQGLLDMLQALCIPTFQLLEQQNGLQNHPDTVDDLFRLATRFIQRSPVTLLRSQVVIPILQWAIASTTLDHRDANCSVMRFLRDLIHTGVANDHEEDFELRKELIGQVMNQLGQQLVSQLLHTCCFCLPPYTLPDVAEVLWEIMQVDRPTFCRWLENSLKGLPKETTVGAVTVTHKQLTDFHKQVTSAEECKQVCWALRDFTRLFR
# [9] = molecular target: T3, Transportin 3 (TNPO3), full-length wild …; test: ITC
binder,measurement,setting,value
B1,Kd,[1],5780 nM
same,Kd,[2],6200 nM
same,binding result,[3],binds
same,Kd,[4],6200 nM and 4240 nM
same,Kd,[5],1180 nM
B2,Kd,[6],870 nM
same,Kd,[7],610 ± 100 nM
same,Kd,[8],970 ± 130 nM
same,Kd,[9],870 nM

# Source: publication PMC12075686, “Structural basis of phosphorylation-independent nuclear import of CIRBP by TNPO3” (Nature Communications, 2025)
